Assay results: IntAct's records for PubMed 35266954

What was measured:
trim1_human MID2 = trim1_human MID2 (UniProt Q9UJV3)
1433t_human YWHAQ = 1433t_human YWHAQ (UniProt P27348)
UniProt P27348, sequence (P27348 whole entry): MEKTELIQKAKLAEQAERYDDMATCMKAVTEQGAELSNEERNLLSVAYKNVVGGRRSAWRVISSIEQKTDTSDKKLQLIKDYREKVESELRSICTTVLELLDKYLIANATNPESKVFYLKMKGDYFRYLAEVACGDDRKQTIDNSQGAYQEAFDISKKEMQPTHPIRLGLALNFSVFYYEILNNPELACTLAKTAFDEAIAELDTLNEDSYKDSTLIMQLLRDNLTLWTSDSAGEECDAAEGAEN

UniProt Q9UJV3, sequence (Q9UJV3 whole entry): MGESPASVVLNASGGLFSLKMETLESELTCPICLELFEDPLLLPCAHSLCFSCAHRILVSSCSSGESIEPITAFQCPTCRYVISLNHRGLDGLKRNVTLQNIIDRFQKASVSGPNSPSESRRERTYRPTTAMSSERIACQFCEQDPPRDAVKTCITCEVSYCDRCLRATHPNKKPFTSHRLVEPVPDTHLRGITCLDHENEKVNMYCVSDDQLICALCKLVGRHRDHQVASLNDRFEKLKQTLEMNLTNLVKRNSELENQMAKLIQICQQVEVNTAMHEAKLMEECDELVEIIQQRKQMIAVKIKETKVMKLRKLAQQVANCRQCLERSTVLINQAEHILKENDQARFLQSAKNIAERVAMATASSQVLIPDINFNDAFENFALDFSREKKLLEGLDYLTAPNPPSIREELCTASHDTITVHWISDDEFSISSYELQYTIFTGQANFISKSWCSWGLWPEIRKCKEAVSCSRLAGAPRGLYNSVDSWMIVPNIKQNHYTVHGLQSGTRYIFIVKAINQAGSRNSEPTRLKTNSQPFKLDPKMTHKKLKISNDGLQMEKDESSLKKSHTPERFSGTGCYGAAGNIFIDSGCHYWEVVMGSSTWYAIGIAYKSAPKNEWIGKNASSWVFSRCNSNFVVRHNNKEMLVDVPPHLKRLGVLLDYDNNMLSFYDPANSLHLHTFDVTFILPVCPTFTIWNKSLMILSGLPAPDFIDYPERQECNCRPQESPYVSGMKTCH

| effect of a mutation on the interaction (trim1_human MID2) | effect of a mutation on the interaction (1433t_human YWHAQ) | Substance |
| --- | --- | --- |
| with no effect | – | Leucine-rich repeat serine/threonine-protein kinase 2 (Homo sapiens), Q5S007 G2019S |
| – | disrupting interaction strength | Leucine-rich repeat serine/threonine-protein kinase 2 (Homo sapiens), Q5S007 R1441C |
| – | disrupting interaction strength | Leucine-rich repeat serine/threonine-protein kinase 2 (Homo sapiens), Q5S007 S910A;S935A |
| – | disrupting interaction strength | Leucine-rich repeat serine/threonine-protein kinase 2 (Homo sapiens), Q5S007 S910D;S935D |
